Results from the supplement of paper PMC7877785.
± gives the uncertainty stated by the source.

Test: self-splicing fitness, log relative to wild type (ln ratio); higher = more splicing; Tetrahymena group I intron in knt gene, E. coli kanamycin selection, DiMSum; sequences stand for … in CUCUCU…GGAGGGAAAAGUUAUCAGGCAUGCACCUGGUAGCUAGUCUUUAAACCAAUAGAUUGCAUCGGUUUAAAAGGCAAGACCGUCAAAUUGCGGGAAAGGGGUCAACAGCCGUUCAGUACCAAGUCUCAGGGGAAACUUUGAGAUGGCCUUGCAAAGGGUAUGGUAAUAAGCUGACGGACAUGGUCCUAACCACGCAGCCAAGUCCUAAGUCAACAGAUCUUCUGUUGAUAUGGAUGCAGUUCACAGACUAAAUGUCGGUCGGGGAAGAUGUAUUCUUCUCAUAAGAUAUAGUCGGACCUCUCCUUAAUGGGAGCUAGCGGAUGAAGUGAUGCAACACUGGAGCCGCUGGGAACUAAUUUGUAUGCGAAAGUAUAUUGAUUAGUUUUGGAGUACUCGUGGUCG
Outline: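 DiMSum derived fitness as the error-weighted combination of fold changes across replicates, kanamycin versus no kanamycin, normalised to wild type. E. coli BL21(DE3) held the library, which randomised all eight P1ex-region intron nucleotides within the knt kanamycin-resistance gene on pET-22b(+). Six replicate transformations grew overnight at 37°C or 30°C on LB agar with or without 25 μg/mL kanamycin, also containing 100 μg/mL carbenicillin, 50 μM IPTG and 0.2% rhamnose, and pooled colonies were amplicon-sequenced on an Illumina HiSeq 2500.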

Sequence	self-splicing fitness (ln) (30 °C)	self-splicing fitness (ln) (37 °C)
CCCGAGCAAUAUUACGAAAU	-3.65 ± 0.33	-0.929 ± 0.16
CCCGAGCAAUAUUACGAAUC	-1.59 ± 0.16	–
CCCGAGCAAUAUUACGACAC	-3.41 ± 0.4	–
CCCGAGCAAUAUUACGACGU	-2.47 ± 0.15	-0.954 ± 0.13
CCCGAGCAAUAUUACGAUGG	-3.39 ± 0.16	-1.28 ± 0.13
CCCGAGCAAUAUUACGCAGU	-2.82 ± 0.16	-2.64 ± 0.18
CCCGAGCAAUAUUACGCGUA	-3.06 ± 0.21	-2.05 ± 0.21
CCCGAGCAAUAUUACGGAAC	-2.51 ± 0.31	-2.57 ± 0.34
CCCGAGCAAUAUUACGGACC	-3 ± 0.28	–
CCCGAGCAAUAUUACGGAGC	-1.75 ± 0.16	-2.77 ± 0.36
CCCGAGCAAUAUUACGGAUG	-1.67 ± 0.091	-1.35 ± 0.13
CCCGAGCAAUAUUACGGGAG	-3.25 ± 0.24	-1.5 ± 0.19
CCCGAGCAAUAUUACGGGUA	-3.44 ± 0.2	-3.43 ± 0.23
CCCGAGCAAUAUUACGUAAG	-3.63 ± 0.2	-2.77 ± 0.18
CCCGAGCAAUAUUACGUAGU	-3.11 ± 0.15	-2.58 ± 0.19
CCCGAGCAAUAUUACGUCGC	-2.91 ± 0.25	-2.29 ± 0.4
CCCGAGCAAUAUUACGUGUG	-3.24 ± 0.12	-1.86 ± 0.098
CCCUAGCAAUAUUACGAACU	-2.89 ± 0.18	-3.56 ± 0.39
CCCUAGCAAUAUUACGAGUG	-3.51 ± 0.16	-2.28 ± 0.12
CCCUAGCAAUAUUACGAUAG	-2.74 ± 0.2	-2.39 ± 0.27
CCCUAGCAAUAUUACGAUUC	-1.79 ± 0.35	–
CCCUAGCAAUAUUACGCAAA	-3.13 ± 0.24	-3.49 ± 0.42
CCCUAGCAAUAUUACGCACG	-3.98 ± 0.37	-1.74 ± 0.18
CCCUAGCAAUAUUACGCACU	-2.43 ± 0.15	-2.64 ± 0.24
CCCUAGCAAUAUUACGCCGA	-3.85 ± 0.33	-2.31 ± 0.3

Sequence	self-splicing fitness (ln) (30 °C)	self-splicing fitness (ln) (37 °C)
CCCUAGCAAUAUUACGCUCA	–	-2.67 ± 0.36
CCCUAGCAAUAUUACGCUCC	–	-2.13 ± 0.4
CCCUAGCAAUAUUACGGCCA	-2.88 ± 0.39	-2.19 ± 0.26
CCCUAGCAAUAUUACGGGAA	-3.63 ± 0.25	-3.08 ± 0.19
CCCUAGCAAUAUUACGGUAG	-3.6 ± 0.16	-3.5 ± 0.21
CCCUAGCAAUAUUACGGUGC	-3.43 ± 0.12	-2.88 ± 0.17
CCCUAGCAAUAUUACGGUGG	-4.27 ± 0.29	-1.93 ± 0.16
CCCUAGCAAUAUUACGGUUU	-3.31 ± 0.17	-2.87 ± 0.17
CCCUAGCAAUAUUACGUACU	-2.78 ± 0.14	-2.65 ± 0.23
CCCUAGCAAUAUUACGUCAC	-2.55 ± 0.24	-1.44 ± 0.34
CCCUAGCAAUAUUACGUGGA	-1.42 ± 0.094	-0.882 ± 0.093
CCCUAGCAAUAUUACGUGGU	-4.61 ± 0.2	-2.27 ± 0.14
CCCUAGCAAUAUUACGUGUA	-3.49 ± 0.25	-2.94 ± 0.21
CCCUAGCAAUAUUACGUUCU	-4.33 ± 0.23	-3.61 ± 0.19
CCCUAGCAAUAUUACGUUUC	-3.32 ± 0.17	-2.24 ± 0.19
CCCUAGCAAUAUUACGUUUU	-3.59 ± 0.15	-2.2 ± 0.14
CCGAAGCAAUAUUACGAAUA	-2.66 ± 0.24	-2.49 ± 0.21
CCGAAGCAAUAUUACGACAG	-0.797 ± 0.098	-0.282 ± 0.12
CCGAAGCAAUAUUACGAGAC	–	-2.52 ± 0.31
CCGAAGCAAUAUUACGAGUA	-2.42 ± 0.2	-2.92 ± 0.23
CCGAAGCAAUAUUACGAUAU	-4.3 ± 0.35	-3.21 ± 0.26
CCGAAGCAAUAUUACGCCGG	–	-2.21 ± 0.46
CCGAAGCAAUAUUACGCGAU	-3.78 ± 0.28	-1.93 ± 0.33
CCGAAGCAAUAUUACGCUUU	-2.45 ± 0.15	-3.33 ± 0.23
CCGAAGCAAUAUUACGGAGC	-1.9 ± 0.33	-2.74 ± 0.44

Sequence	self-splicing fitness (ln) (30 °C)	self-splicing fitness (ln) (37 °C)
CCGAAGCAAUAUUACGGAUU	-2.88 ± 0.27	-3.15 ± 0.35
CCGAAGCAAUAUUACGGCAU	-4.19 ± 0.31	-2.92 ± 0.23
CCGAAGCAAUAUUACGGCGA	-2.69 ± 0.3	-2.53 ± 0.32
CCGAAGCAAUAUUACGUAUG	-0.869 ± 0.077	0.0157 ± 0.1
CCGAAGCAAUAUUACGUCCU	–	-1.89 ± 0.28
CCGAAGCAAUAUUACGUGUC	-3.49 ± 0.23	-1.34 ± 0.16
CCGAAGCAAUAUUACGUUAU	-3.94 ± 0.32	-2.87 ± 0.2
CCGAAGCAAUAUUACGUUUC	-3.56 ± 0.24	-2.84 ± 0.19
CCGCAGCAAUAUUACGAACU	-1.92 ± 0.17	–
CCGCAGCAAUAUUACGACGA	-0.105 ± 0.077	-0.259 ± 0.084
CCGCAGCAAUAUUACGAGAA	-3.07 ± 0.28	-2.24 ± 0.31
CCGCAGCAAUAUUACGAGCG	-2.4 ± 0.12	-0.494 ± 0.11
CCGCAGCAAUAUUACGAGGA	-3.51 ± 0.19	-1.79 ± 0.13
CCGCAGCAAUAUUACGAGUU	-4.11 ± 0.22	-2.56 ± 0.21
CCGCAGCAAUAUUACGCCAU	-3.66 ± 0.15	-3.07 ± 0.19
CCGCAGCAAUAUUACGCCCG	-0.205 ± 0.11	0.732 ± 0.16
CCGCAGCAAUAUUACGCGUC	-3 ± 0.13	-3.01 ± 0.23
CCGCAGCAAUAUUACGGCUG	-3.8 ± 0.29	-2.45 ± 0.27
CCGCAGCAAUAUUACGGUGU	-3.97 ± 0.16	-1.89 ± 0.14
CCGCAGCAAUAUUACGGUUG	-2.18 ± 0.066	-1.24 ± 0.085
CCGCAGCAAUAUUACGUCCA	-2.28 ± 0.27	0.175 ± 0.2
CCGCAGCAAUAUUACGUCCG	-0.393 ± 0.084	-0.499 ± 0.09
CCGCAGCAAUAUUACGUGCA	-3.71 ± 0.33	-1.54 ± 0.14
CCGCAGCAAUAUUACGUGCU	-2.05 ± 0.27	–
CCGCAGCAAUAUUACGUGGC	-3.29 ± 0.16	-2.3 ± 0.2

Sequence	self-splicing fitness (ln) (30 °C)	self-splicing fitness (ln) (37 °C)
CCGCAGCAAUAUUACGUUCG	-0.778 ± 0.056	-0.0727 ± 0.077
CCGGAGCAAUAUUACGAAAG	-2.31 ± 0.11	-1.05 ± 0.12
CCGGAGCAAUAUUACGAACU	-2.29 ± 0.31	-0.657 ± 0.28
CCGGAGCAAUAUUACGACAA	-3.72 ± 0.43	-2.16 ± 0.3
CCGGAGCAAUAUUACGCACG	–	-0.516 ± 0.21
CCGGAGCAAUAUUACGCCAC	-3.02 ± 0.49	0.445 ± 0.34
CCGGAGCAAUAUUACGCCUC	–	-2.47 ± 0.41
CCGGAGCAAUAUUACGCGGA	-3.34 ± 0.23	-2.74 ± 0.29
CCGGAGCAAUAUUACGCGGG	-4.25 ± 0.39	-2.25 ± 0.19
CCGGAGCAAUAUUACGGACA	-2.43 ± 0.42	-2.97 ± 0.47
CCGGAGCAAUAUUACGGACG	-2.82 ± 0.19	-1.31 ± 0.25
CCGGAGCAAUAUUACGGAGA	-3.99 ± 0.39	-2.24 ± 0.25
CCGGAGCAAUAUUACGGCCG	-2.44 ± 0.26	-0.644 ± 0.21
CCGGAGCAAUAUUACGGCUU	-0.296 ± 0.29	-1.49 ± 0.33
CCGGAGCAAUAUUACGGGCC	–	-2.03 ± 0.33
CCGGAGCAAUAUUACGGGUA	-3.53 ± 0.4	–
CCGGAGCAAUAUUACGGUAG	-2.71 ± 0.14	-2.75 ± 0.21
CCGGAGCAAUAUUACGUCGA	-3.12 ± 0.2	-1.89 ± 0.19
CCGGAGCAAUAUUACGUGCC	-2.1 ± 0.38	-2.94 ± 0.35
CCGGAGCAAUAUUACGUGCG	-1.42 ± 0.077	-0.676 ± 0.091
CCGUAGCAAUAUUACGAAUG	-0.463 ± 0.099	0.0216 ± 0.11
CCGUAGCAAUAUUACGAGAA	-2.42 ± 0.42	-1.03 ± 0.44
CCGUAGCAAUAUUACGCAGU	-2.54 ± 0.18	-2.6 ± 0.27
CCGUAGCAAUAUUACGCAUU	-3.54 ± 0.31	-2.9 ± 0.47
CCGUAGCAAUAUUACGGAUC	-3.86 ± 0.2	-2.03 ± 0.19
